Test results reported in patent US20250270320A1 (EUTILEX, published 2025).

What was measured:
[1] = molecular target: T1, human PD-1 expressed on cells (human, UniProt Q15116 25-288); assay: flow cytometry on cells overexpressing hPD-1
T1 construct: whole, on cells; also called hPD-1; 293 cell line stably expressing human PD-1

[2] = molecular target: T2, recombinant human PD-1-His protein (ECD) (human, UniProt Q15116 25-170); assay: Q-ELISA of purified antibody on recombinant human PD-1-His, drawn table
T2 construct: extracellular domain; Used as ELISA coat and SPR partner; also called rhprotein; antigen; not shown: His tag
Procedure: For ELISA, the recombinant human PD-1-His protein was O/N coated on a 96-well ELISA plate at 4° C., and blocked with 5% non-fat skim milk at RT for 1 hr. […]

[3] = molecular target: T1, human PD-1 expressed on cells; assay: flow cytometry on activated hCD8 T cells from human blood, 2nd-hIgG-PE detection; 2nd-hIgG-PE alone 1.73
[4] = molecular target: T1, human PD-1 expressed on cells; assay: flow cytometry on hPD-1/293 cells, 2nd-hIgG-PE detection; Ctl 2nd-hIgG 0.17, cell only 0.03
Source text: In addition, each purified humanized antibody was bound to 293 cells expressing human PD-1 and analyzed by flow cytometry.

[5] = molecular target: T2, recombinant human PD-1-His protein (ECD); assay: SPR; number in the sensorgram panel without name or unit, taken as KD in M because 9.655e-9 stands for 9.7 nM in FIG 9d
[6] = molecular target: T2, recombinant human PD-1-His protein (ECD); assay: SPR, purified antibody, PD-1 antigen
[7] = molecular target: T2, recombinant human PD-1-His protein (ECD); assay: SPR; number in the sensorgram panel without name or unit, taken as KD in M because 5.789e-9 stands for 5.8 nM in FIG 9d

T2 sequence (Q15116 25-170): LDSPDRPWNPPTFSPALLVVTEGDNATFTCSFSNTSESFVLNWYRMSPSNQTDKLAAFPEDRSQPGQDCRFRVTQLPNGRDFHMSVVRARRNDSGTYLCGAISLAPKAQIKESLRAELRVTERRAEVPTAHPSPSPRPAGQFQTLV
T1 sequence (Q15116 25-288): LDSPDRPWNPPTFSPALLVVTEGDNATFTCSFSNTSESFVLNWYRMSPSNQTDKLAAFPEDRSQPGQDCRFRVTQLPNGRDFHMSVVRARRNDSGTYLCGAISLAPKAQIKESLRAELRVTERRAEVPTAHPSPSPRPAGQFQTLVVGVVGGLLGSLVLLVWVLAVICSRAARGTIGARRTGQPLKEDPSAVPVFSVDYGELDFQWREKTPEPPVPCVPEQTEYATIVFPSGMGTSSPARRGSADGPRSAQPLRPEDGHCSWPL

B1: humanized antibody 7C5 (antibody, V domains shown)
VH: EVQLVESGGGLVKPGGSLRLSCAASGFTFSSFGMSWVRQAPGKGLELVATIYSNGDYTYYPDSVKGRFTVSRDNAKNSLYLQMNSLRAEDTAVYYCARYYGNYGGYFDYWGQGTLVTVSS
VL: AIQMTQSPSSLSASVGDRVTITCKASQSVSNDVAWYQQKPGKAPKLLIYYASNRYTGVPSRFSGSGSGTDFTLTISSLQPEDFATYYCQQDYSSPPTFGGGTKVEIK
notes: Humanized antibody
percent of cells in the positive quadrant [1]: 96.4%
OD=405, row 1 of 8 (1/2 serial dilution from 500ng) [2]: 3.42
OD=405, row 2 of 8 (1/2 serial dilution from 500ng) [2]: 3.39
OD=405, row 3 of 8 (1/2 serial dilution from 500ng) [2]: 3.42
OD=405, row 4 of 8 (1/2 serial dilution from 500ng) [2]: 3.34
OD=405, row 5 of 8 (1/2 serial dilution from 500ng) [2]: 3.22
OD=405, row 6 of 8 (1/2 serial dilution from 500ng) [2]: 2.74
OD=405, row 7 of 8 (1/2 serial dilution from 500ng) [2]: 1.96
OD=405, row 8 of 8 (1/2 serial dilution from 500ng) [2]: 1.16
percent of cells in the positive quadrant [3]: 6.39%
percent of cells in the positive quadrant [4]: 95.3%
Kd [5]: 211 nM
Kd [6]: 57.2 nM
koff [6]: 0.00492 s⁻¹
kon [6]: 86000 M⁻¹ s⁻¹

B2: humanized antibody 2B3W (antibody, V domains shown)
VH: EVQLVESGGGLVQPGGSLRLSCAASGFVFSNYDMSWVRQAPGKGLEWVAYITIGGGTTYYPDTVKGRFTISRDNAKNSLYLQMNSLRAEDTAVYYCARWVYDPLYAMDYWGQGTTVTVSS
VL: DIVLTQTPLSLSVTPGQPASISCRASESVDNYGISFMNWFLQKPGQPPQLLIYAASNQGSGVPDRFSGSGSGTDFTLKISRVEAEDVGVYYCQQSKEVPWTFGQGTKVEIK
notes: Humanized antibody made in Expi293 cells
percent of cells in the positive quadrant [1]: 95.6%
OD=405, row 1 of 8 (1/2 serial dilution from 500ng) [2]: 3.17
OD=405, row 2 of 8 (1/2 serial dilution from 500ng) [2]: 3.15
OD=405, row 3 of 8 (1/2 serial dilution from 500ng) [2]: 3.2
OD=405, row 4 of 8 (1/2 serial dilution from 500ng) [2]: 3.13
OD=405, row 5 of 8 (1/2 serial dilution from 500ng) [2]: 2.92
OD=405, row 6 of 8 (1/2 serial dilution from 500ng) [2]: 2.45
OD=405, row 7 of 8 (1/2 serial dilution from 500ng) [2]: 1.7
OD=405, row 8 of 8 (1/2 serial dilution from 500ng) [2]: 1.09
Kd [7]: 428 nM
percent of cells in the positive quadrant [3]: 9.77%
percent of cells in the positive quadrant [4]: 94.7%
Kd [6]: 13.4 nM
koff [6]: 0.00271 s⁻¹
kon [6]: 203000 M⁻¹ s⁻¹
